Values belong to the molecule of their own block, whether it stands above or below them.
What was measured:
[1] = target: N-terminal domain of the human lipocalin 2 receptor (hLCN2-R-NTD), wild type (human) (UniProt Q8WUG5); experiment: ITC; apoNGAL (500 μM) in the syringe, hLCN2-R-NTD form (50 μM) in the cell; 25 °C, 20 mM Tris, pH 7.4, 50 mM NaCl; single binding site fit
[2] = target: hLCN2-R-NTD double mutant (hLCN2-R-NTD-DM), Cys-15–Cys-94 mutated out (human) (UniProt Q8WUG5); experiment: as above
[3] = target: hLCN2-R-NTD quadruple mutant (hLCN2-R-NTD-QM) (human) (UniProt Q8WUG5); experiment: as above
[4] = target: hLCN2-R-NTD quadruple mutant (hLCN2-R-NTD-QM) (human) (UniProt Q8WUG5); experiment: NMR 15N CPMG relaxation dispersion; 15N-labelled hLCN2-R-NTD-QM with 0.05, 0.1 and 0.15 eq of unlabelled NGAL; 25 °C; two-state exchange fit, kex and populations as global parameters for the C-terminal residues
[5] = target: T1, human neutrophil gelatinase-associated lipocalin, hNGAL(C87S) (human, UniProt P80188 21-198, C87S); experiment: MST; GFP-hLCN2-R-NTD fixed at 500 nM, apoNGAL varied 0–300 μM; 20 mM Tris/HCl, pH 7.4, 25 °C; details: both partners purified
T1 construct: human NGAL (LCN2), coding region amplified from pGEX-4T-hNGAL(C87S); The holo form is the same protein loaded with ferric enterobactin (a small molecule); it is told apart by the assay; the wild type was made only for the spin label; also called apoNGAL; LCN2; not shown: His6, N-terminal, cleaved
T1 sequence (P80188 21-198 C107S): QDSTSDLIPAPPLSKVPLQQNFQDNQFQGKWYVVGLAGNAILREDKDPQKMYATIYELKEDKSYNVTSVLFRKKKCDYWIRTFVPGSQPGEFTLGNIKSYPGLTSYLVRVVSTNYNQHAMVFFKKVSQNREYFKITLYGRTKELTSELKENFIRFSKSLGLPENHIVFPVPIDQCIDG

[6] = target: T1, human neutrophil gelatinase-associated …; experiment: MST; GFP-hLCN2-R-NTD fixed at 500 nM, NGAL/[FeIII(Ent)]3- (NGAL loaded with ferric enterobactin) varied 0–300 μM; 20 mM Tris/HCl, pH 7.4, 25 °C; details: both partners purified

- Kd [1]: 10 µM
- dH [1]: -4.5 kcal/mol
- stoichiometry N [1]: 1
- Kd [2]: 9 µM
- dH [2]: -2.1 kcal/mol
- Kd [3]: 8 µM
- dH [3]: -1.4 kcal/mol
- kex (0.1 eq of NGAL) [4]: 1300 s⁻¹
- kex (0.15 eq of NGAL) [4]: 1200 s⁻¹
- population of bound state (0.1 eq of NGAL) [4]: 1%
Molecule: human neutrophil gelatinase-associated lipocalin, hNGAL(C87S) (from UniProt P80188 21-198) (ligand)

- Kd [5]: 6.6 µM
- Kd [6]: 20.7 µM
B1: GFP-hLCN2-R-NTD (domain or fragment)
chain: MASDPIFTLAPPLHCHYGAFPPNASGWEQPPNASGVSVASAALAASAASRVATSTDPSCSGFAPPDFNHCLKDWDYNGLPVLTTNAIGQWDLVCDLGWQVILEQI
modifications: Limits: printed residues 1-105 are numbered on the 538-aa isoform (NM_020372); the 649-aa entry is taken to carry a 111-residue N-terminal extension (649-538), so offset +111 (Cys15/59/70/94 = …)

From publication PMC4742754, “Biochemical and Structural Characterization of the Interaction between the Siderocalin NGAL/LCN2 (Neutrophil Gelatinase-associated Lipocalin/Lipocalin 2) and the N-terminal Domain of Its Endocytic Receptor SLC22A17*” (The Journal of Biological Chemistry, 2015)
